Reference: patent US9988424 (DUKE UNIVERSITY, dated 2018)
Numbering of substitutions follows the chain as printed.

Assays:
J08 B.HXB2/BALV1V2 = molecular target: T1, J08 B.HXB2/BALV1V2 (HIV-1); assay: ELISA, mAb 0.001-100 ug/ml on coated V1V2 scaffold, OD450
T1 construct: also called J08 B.HXB/BAL V1V2
T1 chain: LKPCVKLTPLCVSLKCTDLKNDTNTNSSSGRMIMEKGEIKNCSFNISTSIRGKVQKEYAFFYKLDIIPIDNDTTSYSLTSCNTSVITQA

gp70 B.HXB2/BALV1V2 = molecular target: T2, gp70 B.HXB2/BALV1V2 (murine leukemia virus; HIV-1); assay: as above
T2 chain: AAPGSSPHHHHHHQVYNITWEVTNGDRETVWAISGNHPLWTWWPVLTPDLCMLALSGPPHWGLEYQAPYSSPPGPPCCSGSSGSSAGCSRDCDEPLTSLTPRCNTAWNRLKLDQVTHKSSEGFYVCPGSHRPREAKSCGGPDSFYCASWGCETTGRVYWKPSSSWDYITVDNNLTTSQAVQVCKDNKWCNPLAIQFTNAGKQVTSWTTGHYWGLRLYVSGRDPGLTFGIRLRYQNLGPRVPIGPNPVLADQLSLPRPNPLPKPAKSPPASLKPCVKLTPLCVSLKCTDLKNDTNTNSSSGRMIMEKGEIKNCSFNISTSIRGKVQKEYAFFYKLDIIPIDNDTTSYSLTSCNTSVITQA

[1] = molecular target: T3, J08 B.HXB2/BALV1V2N156QN160Q (HIV-1); assay: as above
T3 chain: T1 chain with N41Q, N45Q

[2] = molecular target: T4, J08 A.92RW020V1V2/N156QN160Q (HIV-1); assay: as above
T4 construct: also called J08 A.92RW020VV1V2/N156QN160Q

[3] = molecular target: T5, gp70 B.HXB2/BALV1V2/N156QN160Q (murine leukemia virus; HIV-1); assay: as above
T5 chain: T2 chain with N311Q, N315Q

Env of SHIV-1157ipd3N4 = Env of SHIV-1157ipd3N4 (SHIV); assay: cell-based or functional assay
Env of AE.92TH023 virus = Env of AE.92TH023 virus (HIV-1); assay: cell-based or functional assay
Env of AE.CM244 virus = Env of AE.CM244 virus (HIV-1); assay: cell-based or functional assay
Env of SHIV-SF162P4 = Env of SHIV-SF162P4 (SHIV); assay: cell-based or functional assay
Env of SHIV SF162P3 = Env of SHIV SF162P3 (SHIV); assay: cell-based or functional assay
Env of SHIV-BaL = Env of SHIV-BaL (SHIV); assay: cell-based or functional assay
Env of B.MN virus = Env of B.MN virus (HIV-1); assay: cell-based or functional assay
Env of SHIV-1157ipEL-p = Env of SHIV-1157ipEL-p (SHIV); assay: cell-based or functional assay
AE.A244 V1V2 Tags = AE.A244 V1V2 Tags (HIV-1); assay: ELISA; markers as in the legend printed on D00157
A.9004SS V1/V2 tags = molecular target: T6, A.9004SS V1/V2 tags; assay: ELISA, OD405 at 10 ug/ml
T6 V1V2 tags construct: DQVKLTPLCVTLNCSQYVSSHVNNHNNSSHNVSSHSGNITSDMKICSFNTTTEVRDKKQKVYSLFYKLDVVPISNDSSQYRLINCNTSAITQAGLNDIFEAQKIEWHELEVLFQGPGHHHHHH

G.con gp140CF = assay: ELISA, OD405 at 10 ug/ml
B.040 gp140C = assay: ELISA, OD405 at 10 ug/ml
B.62357 gp140C = molecular target: T7, B.62357 gp140C; assay: ELISA, OD405 at 10 ug/ml
T7 construct: also called B.62357 140C

B.Case A2 V1/V2 tags = assay: ELISA, OD405 at 10 ug/ml
B.63521_V1/V2 tags = assay: ELISA, OD405 at 10 ug/ml
gp70 C.1086 V1/V2 = molecular target: T8, gp70 C.1086 V1/V2 (HIV-1 V1V2 on murine leukemia virus gp70); assay: ELISA, OD405 at 10 ug/ml
T8 construct: also called C.gp70 1086C V1V2; C.1086gp70V1V2
T8 chain: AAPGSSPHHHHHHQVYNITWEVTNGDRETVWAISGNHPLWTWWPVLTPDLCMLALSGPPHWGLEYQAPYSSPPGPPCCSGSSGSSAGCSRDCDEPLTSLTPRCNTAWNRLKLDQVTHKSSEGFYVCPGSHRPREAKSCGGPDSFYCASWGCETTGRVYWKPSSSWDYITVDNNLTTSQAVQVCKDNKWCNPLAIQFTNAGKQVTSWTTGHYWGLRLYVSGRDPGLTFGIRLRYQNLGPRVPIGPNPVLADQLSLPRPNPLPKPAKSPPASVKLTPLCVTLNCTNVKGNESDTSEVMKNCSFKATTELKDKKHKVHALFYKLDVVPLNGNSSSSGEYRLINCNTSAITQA

B1: CH59 (antibody, V domains shown)
VH: EVQLVESGGGLVQPGRSLRLSCAASGFTFDDGAMHWVRQAPGKGLEWVSGISWNSNIIAYADSVKGRFTISRDNAKNSLYLEMNSLRVEDTALYYCAKDSPRGELPLNYWGQGTLVTVSS
VL: SYELTQPPSVSVSPGQTARITCSGDALPKNYAYWYQQKSGQAPVLVIYEDSKRPSGIPERFSGSSSGTMATLTISGAQVEDEADYYCYSTDSSGNHRVFGGGTKLTVL
notes: also called mAb CH59
Q: What does the source list for B1?
A: binding result (J08 B.HXB2/BALV1V2): no binding (tested: 100 ug/ml); binding result (gp70 B.HXB2/BALV1V2): no binding (tested: 100 ug/ml); binding result [1]: no binding (tested: 100 ug/ml); binding result [2]: no binding (tested: 100 ug/ml); binding result [3]: no binding (tested: 100 ug/ml); EC50, neutralization of SHIV-1157ipd3N4 (Env of SHIV-1157ipd3N4): > 50 µg/mL; EC50, neutralization of AE.TH023 (Env of AE.92TH023 virus): 12.1 µg/mL; EC50, neutralization of AE.CM244 (Env of AE.CM244 virus): > 50 µg/mL; EC50, neutralization of SHIV-SF162P4 (Env of SHIV-SF162P4): > 50 µg/mL; EC50, neutralization of SHIV SF162P3 (Env of SHIV SF162P3): > 50 µg/mL; EC50, neutralization of SHIV-BaL (Env of SHIV-BaL): > 50 µg/mL; EC50, neutralization of B.MN (Env of B.MN virus): > 50 µg/mL; EC50, neutralization of SHIV-1157ipEL-p (Env of SHIV-1157ipEL-p): 24.6 µg/mL

B2: CH59 reverted unmutated ancestor antibody (antibody, V domains shown)
VH: B1 VH with G32Y, N56G, I57S, A59G, E82Q, V88A, L107F, N108D
VL: B1 VL with N30K
notes: also called CH59 RUA; CH59_RUA
Q: B2 was tested. Which “EC50 (read off the curve)” value (AE.A244 V1V2 Tags) did it give?
A: The value was about 0.08 µg/mL.

Q: Does B2 bind (A.9004SS V1/V2 tags)?
A: Result: no binding (tested: 10 ug/ml)

Q: Does B2 bind (G.con gp140CF)?
A: Result: no binding (tested: 10 ug/ml)

Q: Does B2 bind (B.040 gp140C)?
A: Result: no binding (tested: 10 ug/ml)

Q: Does B2 bind (B.62357 gp140C)?
A: Result: no binding (tested: 10 ug/ml)

Q: Does B2 bind (B.Case A2 V1/V2 tags)?
A: Result: no binding (tested: 10 ug/ml)

Q: Does B2 bind (B.63521_V1/V2 tags)?
A: Result: no binding (tested: 10 ug/ml)

B3: PG9 reverted unmutated ancestor antibody (antibody, V domains shown)
VH: QVQLVESGGGVVQPGRSLRLSCAASGFTFSSYGMHWVRQAPGKGLEWVAVISYDGSNKYYADSVKGRFTISRDNSKNTLYLQMNSLRAEDTAVYYCAREAGGPDYRNGYNYYDFWSGYYNYYYMDVWGKGTTVTVSS
VL: QSALTQPASVSGSPGQSITISCTGTSSDVGSYNLVSWYQQHPGKAPKLMIYEVSKRPSGVSNRFSGSKSGNTASLTISGLQAEDEADYYCCSLTSTRRWVFGGGTKLTVL
notes: also called PG9 RUA; PG9_RUA
Q: Does B3 bind (gp70 C.1086 V1/V2)?
A: Result: no binding (tested: 10 ug/ml)
